Target: T1, purified human Gal-3 (Biolegend) (human, UniProt P17931 1-250)
T1 construct: purified human Galectin-3 bought from Biolegend; No catalogue number printed; source: bought: Biolegend
Assay: cell-free binding assay (coated plate, antibody detection by fluorescence); 96-well plates coated with purified human Gal-3 (0.5 µg in 100 µl, 4 °C overnight), blocked with 50 mg/mL BSA; recombinant human RAB10 0.25 to 0.5 µg/well, 4 h at 30 °C; bound RAB10 detected with rabbit anti-RAB10 and AF488 secondary antibody
Details: both partners purified

T1 sequence (P17931 whole entry): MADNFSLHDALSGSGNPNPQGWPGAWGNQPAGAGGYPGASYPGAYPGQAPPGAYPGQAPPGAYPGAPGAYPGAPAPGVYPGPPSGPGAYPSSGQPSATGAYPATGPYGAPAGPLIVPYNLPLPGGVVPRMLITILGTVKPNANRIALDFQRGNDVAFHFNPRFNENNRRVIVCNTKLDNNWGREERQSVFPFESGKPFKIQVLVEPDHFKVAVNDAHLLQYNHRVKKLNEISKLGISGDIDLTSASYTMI

binding result: binds
B1: recombinant human RAB10 (Prospec PRO-1361) (natural protein, UniProt P61026 1-200, looked up)
chain: MAKKTYDLLFKLLLIGDSGVGKTCVLFRFSDDAFNTTFISTIGIDFKIKTVELQGKKIKLQIWDTAGQERFHTITTSYYRGAMGIMLVYDITNGKSFENISKWLRNIDEHANEDVERMLLGNKCDMDDKRVVPKGKGEQIAREHGIRFFETSAKANINIEKAFLTLAEDILRKTPVKEPNSENVDISSGGGVTGWKSKCC
notes: recombinant human RAB10 bought from Prospec; The vendor's data sheet for PRO-1361 should give limits and any His tag; source: bought: Prospec

From PMC8192788, “Macropinocytosis requires Gal-3 in a subset of patient-derived glioblastoma stem cells” (Communications Biology, 2021)
